Test results taken from US20240409645A1.

T1: mouse IL-2Rα (mouse) (UniProt P01590)
T1 sequence (looked up): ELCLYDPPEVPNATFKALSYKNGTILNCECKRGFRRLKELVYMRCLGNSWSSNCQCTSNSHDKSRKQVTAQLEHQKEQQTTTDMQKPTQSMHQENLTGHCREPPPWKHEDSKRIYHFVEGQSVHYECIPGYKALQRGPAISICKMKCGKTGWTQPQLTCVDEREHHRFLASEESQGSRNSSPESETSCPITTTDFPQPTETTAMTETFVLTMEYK


Columns and labels:
[1] = target: human interleukin-2 receptor α-chain (IL-2Rα; CD25), recombinant protein (human) (UniProt P01589); experiment: ELISA, monovalent VHH-hFc
[2] = target: cynomolgus monkey IL-2Rα/CD25 subunit (cynomolgus monkey) (UniProt H6WS54); experiment: ELISA, monovalent VHH-hFc
cynomolgus monkey IL-2Rα/CD25 subunit (cynomolgus monkey), sequence (H6WS54 entry or part of it): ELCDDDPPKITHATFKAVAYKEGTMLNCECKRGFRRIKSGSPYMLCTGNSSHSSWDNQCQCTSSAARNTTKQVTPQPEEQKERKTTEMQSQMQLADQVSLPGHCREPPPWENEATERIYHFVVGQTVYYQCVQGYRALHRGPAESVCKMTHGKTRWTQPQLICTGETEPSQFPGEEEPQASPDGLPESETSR

[3] = target: cynomolgus monkey IL-2Rα/CD25 subunit (cynomolgus monkey) (UniProt H6WS54); experiment: ELISA, monovalent; EC50 cyno vs human subunit
mouse IL-2Rα (mouse) = target: T1, mouse IL-2Rα (mouse); experiment: ELISA, P.E. on coated antigen

human interleukin-2 receptor α-chain (IL-2Rα; CD25), recombinant protein (human), sequence (P01589 22-240 limits assumed): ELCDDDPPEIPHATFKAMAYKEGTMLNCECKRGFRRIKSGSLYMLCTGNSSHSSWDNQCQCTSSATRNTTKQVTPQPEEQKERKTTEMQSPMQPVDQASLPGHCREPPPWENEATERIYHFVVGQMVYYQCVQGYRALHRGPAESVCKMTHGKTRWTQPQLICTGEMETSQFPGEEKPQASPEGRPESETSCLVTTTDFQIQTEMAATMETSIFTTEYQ

Binder | EC50 [1] [nM] | EC50 [2] [nM] | Fold change [3] [fold] | OD (PE binding ELISA) (mouse IL-2Rα (mouse)) [OD450 nm]
10-MP05F03 VHH-hFc, monospecific monovalent (Fc fusion, part only; not given: Both Fc arms and linker, not shown: another chain or arm of the molecule; a dimerising Fc or GST; small tags and cut ends) VHH: QVQLVESGGGLVQAGGSLRLSCAASGIPFDNYAMGWFRQAPGKEREFVAARDLEGIITRYGDSVKGRFTISRGNAKNTVFLQMNSLKPEDTAVYYCAARDGGVVAGSRSSAQYNYWGQGTQVTVSS | 0.105 | 0.098 | 0.9 | 
3-MP01E03 VHH-hFc, monospecific monovalent (Fc fusion, part only; not given: Both Fc arms and linker, not shown: another chain or arm of the molecule; a dimerising Fc or GST; small tags and cut ends) VHH: QVQLVESGGGLVQAGGSLRLSCTASGRTLSSYSMAWFRQAADKGREFVTAISSSGVVTHVLDSVKGRFTISRDNAKNTVYLQMNSLQPEDTALYFCAGTASSYSTYEANYNYWGQGTLVTVSS | 0.086 | 1.15 | 13.4 | 
FJ1427_P035MP01H07 (VHH) VHH: EVQLVESGGGLVQAGGSLRLSCAASGRTLSGYAMAWFRQPPDKGREFVTAISSSGIVTHVLDSVKGRFTISRDNAKNTVYLQMNSLQPEDTALYFCAATASSYSDYEANYNYWGQGTLVTVSS |  |  |  | 0.049
FJ1427_P035MP01H10 (VHH) VHH: QVQLVESGGGLVETGGSLRLSCAASGITFNDHTMAWFRQAPGKEREFVAARDWSDIITRYASSVKGRFTISRDNAGNTGFLQMNSLRPEDTAVYYCAAREGGVVAGVRSGAPYDYWGQGTQVTVSS |  |  |  | 0.057
FJ1427_P035MP01F08 (VHH) VHH: EVQLVESGGGWVQPGDSLRLSCAASGRSFRNYVMGWFRQVPGKEREFLSVITSLGGTLDADSVADRFTISRDNSKNTVYLQMDSLKPEDTAVYYCAADRGPARYISASDVDYWGQGTQVTVSS |  |  |  | 0.046
2-MP01A02 VHH-hFc, monospecific monovalent (Fc fusion, part only; not given: Both Fc arms and linker, not shown: another chain or arm of the molecule; a dimerising Fc or GST; small tags and cut ends) VHH: QVQLVESGGGLVQPGGSLRLSCATSGFTFRNNFMSWVRQAPGKGLEWVSTISYGGESTTYAESVKGRFTISRDNAKNTLYLQMNNLKPEDTAVYYCAKATSYDSIRSGSRGQGTQVTVSS | 0.074 | 0.096 | 1.3 | 
8-MP01C12 VHH-hFc, monospecific monovalent (Fc fusion, part only; not given: Both Fc arms and linker, not shown: another chain or arm of the molecule; a dimerising Fc or GST; small tags and cut ends) VHH: QVQLVESGGGLVQPGGSLRLSCATSGFTFSNNFMSWVRQAPGKGLEFVSTISYGGESTTYAEAVKGRFTISRDNAKNTLYLQMNNLKPEDTAIYYCAKATSYTSIRGAPRGQGTQVTVSS | 0.065 | 0.069 | 1.1 | 
FJ1427_P035MP01E11 (VHH) VHH: QVQLVESGGGLVQPGGSLRLSCAASGFTFSNNFMSWVRQAPGKGLEWVSTISYFGDSTRYAESVKGRFTISRDNEKNTLYLQMNNLKPEDTAVYYCAKATSYDSIRSGSRGRGTQVTVSS |  |  |  | 0.046
FJ1427_P035MP01H05 (VHH) VHH: EVQLVESGGGLVQPGGSLRLSCAASGFTFSNNFMSWVRQAPGKGLEWVSTISYFGDSTTYAESVKGRFTISRDNAKNTLYLQMNNLKPEDTAVYYCAKATSYDSIRSGSRGRGTQVTVSS |  |  |  | 0.046
FJ1427_P035MP01D09 (VHH) VHH: QVQLVESGGGLVQPGGSLRLSCAASGFTFSNNFMSWVRQAPGKGLEWVSTISYGGESTTYAESVKGRFTISRDNAKNTLYLQMNNLKPEDTAVYYCAKATSYDSIRSGSRGQGTQVTVSS |  |  |  | 0.045
FJ1427_P035MP01E07 (VHH) VHH: QVQLQESGGGLVQAGDSLRLSCAASGRSFRNYILAWYRQAPGKEREFLAAISWLEGTLYADSVEDRFTISRDNPKNTVHLQMDSLKPEDTAVYYCAADRGPVRPVLAPDVDYWGQGTQVTVSS |  |  |  | 0.046
FJ1427_P035MP01B12 (VHH) VHH: QVQLQESGGGLVQAGDSLRLSCAASGRSFRNYILAWYRQAPGKEREFLAAISWLDGTFYANSVEGRFTISRDNPKNTVHLQMDGLKPEDTAVYYCAADRGPVRPVLAPDVDYWGQGTQVTVAS |  |  |  | 0.046
FJ1427_P035MP01G07 (VHH) VHH: QVQLVESGGGLVQTGDSLRLSCAASGRSFRNYILAWYRQAPGKEREFLAAISWLDGTLYADSVEGRFTISRDNPKNTVHLQMDSLKPEDTAVYYCAADRGPVRPVLAPDVDYWGQGTQVTVSS |  |  |  | 0.047
FJ1427_P035MP01F11 (VHH) VHH: QVQLQESGGGLVQAGDSLRLSCAASGRSFRNYILAWYRQAPGKEREFLAAISWLDGTLYADSVEDRFTISRDNPKNTVHLQMDSLKPEDTAVYYCAADRGPVRPVLAPDVDYWGQGTQVTVSS |  |  |  | 0.047
FJ1427_P035MP01D11 (VHH) VHH: QLQLVESGGGLVQAGDSLRLSCAASGRSFRNYIMAWYRQAPGKEREFLAAISWLDGTLYADSVEDRFTISRDNPKNTVHLQMDSLKPEDTAVYYCAADRGPVRPVLAPDVDYWGQGTQVTVSS |  |  |  | 0.045
FJ1427_P035MP01E10 (VHH) VHH: QVQLVESGGGLVQAGDSLRLSCAASGRSFRNYILAWYRQAPGKEREFLAAISWLDGTLYADSVEDRFTISRDNPKNTVHLQMDSLKPEDTAVYYCAADRGPVRPVLAPDVDYWGQGTQVTVSS |  |  |  | 0.046
6-MP01G05 VHH-hFc, monospecific monovalent (Fc fusion, part only; not given: Both Fc arms and linker, not shown: another chain or arm of the molecule; a dimerising Fc or GST; small tags and cut ends) VHH: QVQLQESGGGLVQAGGSLRLSCAASGRTFSSYAMGWFRQAPGKEREFVAVISWNVDNTEYTDSVKGRFTISRDNDKNMVYLQMNSLKPEDTAVYYCAADSIPLSSDMSPTATEYGYWGQGTQVTVSS | 0.27 | 0.317 | 1.2 | 
FJ1427_P035MP01A11 (VHH) VHH: QVQLVESGGGLVQPGGSLRLSCAASGRTFETHNMGWFRRAPGKEREFVAVISWNVDSTEYTDSVKGRFTISRDNDKNMVYLQMNSLKPEDTGVYYCAADNIPLSSDMSPTAAEYGYWGQGTQVTVSS |  |  |  | 0.046
5-MP01F05 VHH-hFc, monospecific monovalent (Fc fusion, part only; not given: Both Fc arms and linker, not shown: another chain or arm of the molecule; a dimerising Fc or GST; small tags and cut ends) VHH: EVQLVESGGGLVQAGGSLRLSCAASIRAFTTWSMAWFRQAPGKEREYVARINVSGSVTYYADFVKGRFTISRDNAKKTMYLEMNNLKPEDTALYYCAADRTGVGTNDYNYWGQGTQVTVSS | 0.088 | 0.136 | 1.5 | 
FJ1427_P035MP01F06 (VHH) VHH: QLQLVESGGGLVQAGGSLRLSCAASGGAFSRYAVGWFRMAPGKGREFVSAIDLSGTNTHVLDSVKGRFTISRDNDKNTAYLQMDKLQPEDTAVYWCAATSSSYSDYEANYNIWGQGTQVTVSS |  |  |  | 0.046
FJ1427_P035MP01G10 (VHH) VHH: EVQLVESGGGLVQAGGSLRLSCAASGGAFSRYAVGWFRMAPGKGREFVSAIDLSGTNTHVLDSVKGRFTISRDNDKNTAYLQMDKLQPEDTAVYWCAATSSSYSDYEANYNIWGQGTQVTVSS |  |  |  | 0.046
7-MP01G08 VHH-hFc, monospecific monovalent (Fc fusion, part only; not given: Both Fc arms and linker, not shown: another chain or arm of the molecule; a dimerising Fc or GST; small tags and cut ends) VHH: EVQLVESGGGLVQAGGSLRLSCAASGRAFSMYNMGWFRQAPGKEREFVAATGWSGANTPYADSVKGRFTISRDNTQNTVYLQMNSLKPEDTATYYCAADSIRLRSDVTRIPLEYDYWGQGTQVTVSS | 0.173 | 0.133 | 0.8 | 
1-MP01H01 VHH-hFc, monospecific monovalent (Fc fusion, part only; not given: Both Fc arms and linker, not shown: another chain or arm of the molecule; a dimerising Fc or GST; small tags and cut ends) VHH: EVQLVESGGGLVQAGGSLRLSCAASGRTFRTHNMGWFRRAPGKEREFVAAISWNVDNTLYADSVKGRFTISRDNGRNMVYLQMNSLKPEDTAVYYCAADNIPLSSDVAATATEYDYWGQGTQVTVSS | 0.478 | 0.498 | 1 | 
4-MP01F04 VHH-hFc, monospecific monovalent (Fc fusion, part only; not given: Fc arms with stated mutations, not shown: another chain or arm of the molecule; a dimerising Fc or GST; small tags and cut ends) VHH: QVQLVESGGGLVQAGGSLRLSCAASGGTFRTRNMGWFRRAPGKEREFVAAVSWNVDNKLYADSVKGRFTISRDNGRNMVYLQMNSLKPEDTAVYYCAADNIPLSSDMRPTATEYDYWGQGTQVTVSS | 0.077 | 0.074 | 1 | 
FJ1427_P035MP01H08 (VHH) VHH: EVQLVESGGRLVQSGGSLRLSCAASGRAFSTHNMGWFRRAPGKEREFVAAISWNVDNKLYANSVKGRFAISRDNGRNMVYLQMNSLKPEDTAVYYCAADNIPLSSDMRATATEYDVWGQGTQVTVSS |  |  |  | 0.047
FJ1427_P035MP01D08 (VHH) VHH: EVQLVESGGGLVQAGGSLRLSCAASGGTFRTRNMGWFRRAPGKEREFVAAVSWNVDNKLYAGSVKGRFTISRDNGRNMVYLQMNSLKPEDTAVYYCAADNIPLSSDMRPTATEYDYWGQGTQVTVSS |  |  |  | 0.045
FJ1427_P035MP01E05 (VHH) VHH: QVQLVESGGGLVQAGGSLRLSCAASGRTFRTHNMGWFRRAPGEEREFVAVISWNVDNKLYADSVKGRFTISRDNGRNMVYLQMNSLKPEDTAVYYCAADNIPLSSDVRATATEFGYWGQGTQVTVSS |  |  |  | 0.046
FJ1427_P035MP01H11 (VHH) VHH: QVQLVESGGGLVQAGGSLRLSCAASGRTFRTHNMGWFRRAPGKEREFVAAISWNVDNTLYADSVKGRFTISRDNDRNMVYLQMNSLKPEDTAVYFCAADNIPLSSDVRATATEFGYWGQGTRVTVSS |  |  |  | 0.047
9-MP05G01 VHH-hFc, monospecific monovalent (Fc fusion, part only; not given: Both Fc arms and linker, not shown: another chain or arm of the molecule; a dimerising Fc or GST; small tags and cut ends) VHH: EVQLVESGGGLVQAGGSLRLSCAASGGSIYTYNMGWFRQAPGKEREFVAGTLWSGGDSVYADFAKGRFTLSRENAKNTLYLQMNSLKPEDTATYYCAIDPLSLTSDWRVDELSSWGKGTLVTVSS | 0.078 | 0.074 | 1 | 
